# Source: patent US20260103488A1 (INTERK PEPTIDE THERAPEUTICS, published 2026)
# Bridges are numbered along the chain shown (N, C = ends). Where no end group is shown, it is not given here. [ ]: non-standard residue; d: D form.
# B1: rskaknply-rrrrrr (ID94600) (peptide)
# peptide: [dR][dS][dK][dA][dK][dN][dP][dL][dY][dR][dR][dR][dR][dR][dR]-NH2
# modifications: N-terminus assumed
# SMILES: CC(C)C[C@@H](NC(=O)[C@H]1CCCN1C(=O)[C@@H](CC(N)=O)NC(=O)[C@@H](CCCCN)NC(=O)[C@@H](C)NC(=O)[C@@H](CCCCN)NC(=O)[C@@H](CO)NC(=O)[C@H](N)CCCNC(=N)N)C(=O)N[C@H](Cc1ccc(O)cc1)C(=O)N[C@H](CCCNC(=N)N)C(=O)N[C@H](CCCNC(=N)N)C(=O)N[C@H](CCCNC(=N)N)C(=O)N[C@H](CCCNC(=N)N)C(=O)N[C@H](CCCNC(=N)N)C(=O)N[C@H](CCCNC(=N)N)C(N)=O
# B2: RSKAKNPLY-RRRRRR (IK14500) (peptide)
# peptide: RSKAKNPLYRRRRRR-NH2
# B3: RSKAKNPLY-RHHHHHHHHHH (IK14010) (peptide)
# peptide: RSKAKNPLYRHHHHHHHHHH-NH2
# B4: RSKAK (IK5000) (peptide)
# peptide: RSKAK-NH2
# B5: rrrrrrrr (IKD00800) (peptide)
# peptide: [dR][dR][dR][dR][dR][dR][dR][dR]-NH2
# modifications: N-terminus assumed
# SMILES: N=C(N)NCCC[C@@H](N)C(=O)N[C@H](CCCNC(=N)N)C(=O)N[C@H](CCCNC(=N)N)C(=O)N[C@H](CCCNC(=N)N)C(=O)N[C@H](CCCNC(=N)N)C(=O)N[C@H](CCCNC(=N)N)C(=O)N[C@H](CCCNC(=N)N)C(=O)N[C@H](CCCNC(=N)N)C(N)=O
# B6: KKKKKKKKKK (10Lys) (peptide)
# peptide: KKKKKKKKKK-NH2
# B7: RSKAKNPLY-RRRRRRRRR-NH2 (IK14800) (peptide)
# peptide: RSKAKNPLYRRRRRRRRR-NH2
# B8: rrrrrrrrr-ylpnkaksr (IKR81400) (peptide)
# peptide: [dR][dR][dR][dR][dR][dR][dR][dR][dR][dY][dL][dP][dN][dK][dA][dK][dS][dR]-NH2
# modifications: N-terminus assumed
# SMILES: CC(C)C[C@@H](NC(=O)[C@@H](Cc1ccc(O)cc1)NC(=O)[C@@H](CCCNC(=N)N)NC(=O)[C@@H](CCCNC(=N)N)NC(=O)[C@@H](CCCNC(=N)N)NC(=O)[C@@H](CCCNC(=N)N)NC(=O)[C@@H](CCCNC(=N)N)NC(=O)[C@@H](CCCNC(=N)N)NC(=O)[C@@H](CCCNC(=N)N)NC(=O)[C@@H](CCCNC(=N)N)NC(=O)[C@H](N)CCCNC(=N)N)C(=O)N1CCC[C@@H]1C(=O)N[C@H](CC(N)=O)C(=O)N[C@H](CCCCN)C(=O)N[C@H](C)C(=O)N[C@H](CCCCN)C(=O)N[C@H](CO)C(=O)N[C@H](CCCNC(=N)N)C(N)=O
# B9: RRRRRRRRR-HHHHHHHHHH (IK00910) (peptide)
# peptide: RRRRRRRRRHHHHHHHHHH-NH2
# B10: RSKAK-RR (IK50200) (peptide)
# peptide: RSKAKRR-NH2
# B11: rrrrrrrrrrrrrr (IKD01400) (peptide)
# peptide: [dR][dR][dR][dR][dR][dR][dR][dR][dR][dR][dR][dR][dR][dR]-NH2
# modifications: N-terminus assumed
# SMILES: N=C(N)NCCC[C@@H](N)C(=O)N[C@H](CCCNC(=N)N)C(=O)N[C@H](CCCNC(=N)N)C(=O)N[C@H](CCCNC(=N)N)C(=O)N[C@H](CCCNC(=N)N)C(=O)N[C@H](CCCNC(=N)N)C(=O)N[C@H](CCCNC(=N)N)C(=O)N[C@H](CCCNC(=N)N)C(=O)N[C@H](CCCNC(=N)N)C(=O)N[C@H](CCCNC(=N)N)C(=O)N[C@H](CCCNC(=N)N)C(=O)N[C@H](CCCNC(=N)N)C(=O)N[C@H](CCCNC(=N)N)C(=O)N[C@H](CCCNC(=N)N)C(N)=O
# B12: RSKAKNPLY-RRRRR (IK14400) (peptide)
# peptide: RSKAKNPLYRRRRR-NH2
# B13: RRRRRRRRR-YLPNKAKSR (IK9R94Y) (peptide)
# peptide: RRRRRRRRRYLPNKAKSR-NH2
# B14: RSKAKNPLY-RRRRRRRRR-HHHHHHHHHH (IK14810) (peptide)
# peptide: RSKAKNPLYRRRRRRRRRHHHHHHHHHH-NH2
# B15: RRRRRRRRRRRR (IK01200) (peptide)
# peptide: RRRRRRRRRRRR-NH2
# B16: HHHHH-RSKAKNPLY-RRRRRRRRR (IK11480) (peptide)
# peptide: HHHHHRSKAKNPLYRRRRRRRRR-NH2
# B17: RRRRRRRRR (IK00900) (peptide)
# peptide: RRRRRRRRR-NH2
# B18: C-RSKAKNPLY-RRRRRR-C (Cyclised) (IK14500C) (peptide)
# peptide: CRSKAKNPLYRRRRRRC
# modifications: disulfide 1-17 (inferred); not fully specified; printed as C-RSKAKNPLY-RRRRRR-C (Cyclised)
# B19: RSKAK-RRRRRRRRR (IK50900) (peptide)
# peptide: RSKAKRRRRRRRRR-NH2
# B20: RRRRRRRRR-SKAKNPLYR (IK9R94S) (peptide)
# peptide: RRRRRRRRRSKAKNPLYR-NH2
# B21: RSKAKNPLY-KKKKKKKKK (IK94K90) (peptide)
# peptide: RSKAKNPLYKKKKKKKKK-NH2
# Biological target: Lck(h) (lymphocyte-specific protein tyrosine kinase) (human, UniProt P06239 1-509, limits assumed)
# Experiment: cell-based or functional assay
# Lck(h) (lymphocyte-specific protein tyrosine kinase), sequence (P06239 whole entry): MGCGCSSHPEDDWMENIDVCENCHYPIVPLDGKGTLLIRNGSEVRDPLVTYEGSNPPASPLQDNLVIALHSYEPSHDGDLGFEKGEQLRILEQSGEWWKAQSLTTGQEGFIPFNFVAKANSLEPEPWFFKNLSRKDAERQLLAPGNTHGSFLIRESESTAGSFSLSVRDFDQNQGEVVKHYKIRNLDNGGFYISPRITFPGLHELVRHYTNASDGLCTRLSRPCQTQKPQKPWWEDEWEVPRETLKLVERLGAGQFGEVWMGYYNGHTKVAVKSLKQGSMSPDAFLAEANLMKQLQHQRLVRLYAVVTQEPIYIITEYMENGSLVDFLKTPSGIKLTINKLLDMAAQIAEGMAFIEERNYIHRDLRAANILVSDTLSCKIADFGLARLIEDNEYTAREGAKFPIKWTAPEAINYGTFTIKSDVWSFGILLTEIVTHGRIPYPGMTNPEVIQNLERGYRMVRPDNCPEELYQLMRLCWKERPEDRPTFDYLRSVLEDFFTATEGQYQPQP
Binder,"Lck activity, percentage relative to control, in vitro kinase assay, peptide 1 µM","Lck activity relative to control (100%), in vitro kinase assay, peptide 1 µM"
B1,60 % increase in Lck activity,
B2,82%,
B3,30 % increase in Lck activity,
B4,5 % activation of Lck relative to control,
B5,,80 % Lck activity relative to control
B6,,161 % increase in Lck activity
B7,496%,
B8,616 % increase in Lck activity,
B9,,348 % Lck activity relative to control
B10,5 % activation of Lck relative to control,
B11,,228 % Lck activity relative to control
B12,85%,
B13,630 % increase in Lck activity,
B14,899 % increase in Lck activity,
B15,,401 % Lck activity relative to control
B16,883 % increase in Lck activity,
B17,325%,
B18,221%,
B19,531 % increase in Lck activity,
B20,542 % increase in Lck activity,
B21,49 % increase in Lck activity,
